{
  "source": "the supplement of paper PMC9112550",
  "about": "“Optimization of the antimicrobial peptide Bac7 by deep mutational scanning” (BMC Biology, 2022);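 also: peptides expressed intracellularly from a pBAD plasmid library in pooled LB shake-flask culture, induced with 0.3% L-arabinose, DNA abundance read by NGS, three biological replicates, DESeq2 with apeglm shrinkage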",
  "data": [
    {"system": "Escherichia coli TOP10", "experiment": "shrunken log2 fold change of peptide-encoding DNA abundance (4.5 h post-induction vs induction); higher = less antimicrobial activity (less host growth inhibition)", "conditions": "time post-induction: 4.5 h; library: site-saturation at positions 5, 18, 19, 20", "values": [
      {"sequence": "RRIRGRPPRLPRPRPRPQAWPRP", "shrunken log2 fold change": 0.69},
      {"sequence": "RRIRGRPPRLPRPRPRPQCAPRP", "shrunken log2 fold change": 1.11},
      {"sequence": "RRIRGRPPRLPRPRPRPQCQPRP", "shrunken log2 fold change": 0.316},
      {"sequence": "RRIRGRPPRLPRPRPRPQCVPRP", "shrunken log2 fold change": -0.0809},
      {"sequence": "RRIRGRPPRLPRPRPRPQDEPRP", "shrunken log2 fold change": 0.111},
      {"sequence": "RRIRGRPPRLPRPRPRPQEYPRP", "shrunken log2 fold change": -0.00348},
      {"sequence": "RRIRGRPPRLPRPRPRPQFHPRP", "shrunken log2 fold change": -0.239},
      {"sequence": "RRIRGRPPRLPRPRPRPQGAPRP", "shrunken log2 fold change": 0.807},
      {"sequence": "RRIRGRPPRLPRPRPRPQKRPRP", "shrunken log2 fold change": 0.662},
      {"sequence": "RRIRGRPPRLPRPRPRPQKTPRP", "shrunken log2 fold change": -0.0351},
      {"sequence": "RRIRGRPPRLPRPRPRPQLLPRP", "shrunken log2 fold change": 0.253},
      {"sequence": "RRIRGRPPRLPRPRPRPQQKPRP", "shrunken log2 fold change": 0.206},
      {"sequence": "RRIRGRPPRLPRPRPRPQRLPRP", "shrunken log2 fold change": 0.329},
      {"sequence": "RRIRGRPPRLPRPRPRPQVDPRP", "shrunken log2 fold change": 0.266},
      {"sequence": "RRIRGRPPRLPRPRPRPQVHPRP", "shrunken log2 fold change": 0.231},
      {"sequence": "RRIRGRPPRLPRPRPRPQVLPRP", "shrunken log2 fold change": 0.0422},
      {"sequence": "RRIRGRPPRLPRPRPRPQVTPRP", "shrunken log2 fold change": 0.0826},
      {"sequence": "RRIRGRPPRLPRPRPRPQWFPRP", "shrunken log2 fold change": 0.282},
      {"sequence": "RRIRGRPPRLPRPRPRPQWVPRP", "shrunken log2 fold change": 0.218},
      {"sequence": "RRIRGRPPRLPRPRPRPQYAPRP", "shrunken log2 fold change": 0.285},
      {"sequence": "RRIRGRPPRLPRPRPRPQYQPRP", "shrunken log2 fold change": -0.191},
      {"sequence": "RRIRGRPPRLPRPRPRPRADPRP", "shrunken log2 fold change": 1.17},
      {"sequence": "RRIRGRPPRLPRPRPRPRAGPRP", "shrunken log2 fold change": 1.36},
      {"sequence": "RRIRGRPPRLPRPRPRPRAPPRP", "shrunken log2 fold change": 1.05},
      {"sequence": "RRIRGRPPRLPRPRPRPRCCPRP", "shrunken log2 fold change": 0.474},
      {"sequence": "RRIRGRPPRLPRPRPRPRCFPRP", "shrunken log2 fold change": 0.698},
      {"sequence": "RRIRGRPPRLPRPRPRPREQPRP", "shrunken log2 fold change": 0.857},
      {"sequence": "RRIRGRPPRLPRPRPRPRETPRP", "shrunken log2 fold change": 1.86},
      {"sequence": "RRIRGRPPRLPRPRPRPREYPRP", "shrunken log2 fold change": 0.355},
      {"sequence": "RRIRGRPPRLPRPRPRPRFFPRP", "shrunken log2 fold change": 0.741},
      {"sequence": "RRIRGRPPRLPRPRPRPRGMPRP", "shrunken log2 fold change": 0.939},
      {"sequence": "RRIRGRPPRLPRPRPRPRGYPRP", "shrunken log2 fold change": 0.382},
      {"sequence": "RRIRGRPPRLPRPRPRPRHGPRP", "shrunken log2 fold change": 0.264},
      {"sequence": "RRIRGRPPRLPRPRPRPRHRPRP", "shrunken log2 fold change": 0.401},
      {"sequence": "RRIRGRPPRLPRPRPRPRIKPRP", "shrunken log2 fold change": 0.487},
      {"sequence": "RRIRGRPPRLPRPRPRPRIPPRP", "shrunken log2 fold change": 0.424},
      {"sequence": "RRIRGRPPRLPRPRPRPRIQPRP", "shrunken log2 fold change": 0.337},
      {"sequence": "RRIRGRPPRLPRPRPRPRMSPRP", "shrunken log2 fold change": 0.28},
      {"sequence": "RRIRGRPPRLPRPRPRPRNCPRP", "shrunken log2 fold change": 0.0949},
      {"sequence": "RRIRGRPPRLPRPRPRPRNFPRP", "shrunken log2 fold change": 0.197},
      {"sequence": "RRIRGRPPRLPRPRPRPRPHPRP", "shrunken log2 fold change": 0.51},
      {"sequence": "RRIRGRPPRLPRPRPRPRPQPRP", "shrunken log2 fold change": 0.863},
      {"sequence": "RRIRGRPPRLPRPRPRPRPTPRP", "shrunken log2 fold change": 0.906},
      {"sequence": "RRIRGRPPRLPRPRPRPRPWPRP", "shrunken log2 fold change": 0.77},
      {"sequence": "RRIRGRPPRLPRPRPRPRQIPRP", "shrunken log2 fold change": 0.684},
      {"sequence": "RRIRGRPPRLPRPRPRPRRFPRP", "shrunken log2 fold change": 0.402},
      {"sequence": "RRIRGRPPRLPRPRPRPRRRPRP", "shrunken log2 fold change": 1.02},
      {"sequence": "RRIRGRPPRLPRPRPRPRSSPRP", "shrunken log2 fold change": 0.128},
      {"sequence": "RRIRGRPPRLPRPRPRPRTFPRP", "shrunken log2 fold change": 1.1},
      {"sequence": "RRIRGRPPRLPRPRPRPRTLPRP", "shrunken log2 fold change": 0.477},
      {"sequence": "RRIRGRPPRLPRPRPRPRTRPRP", "shrunken log2 fold change": 1.01},
      {"sequence": "RRIRGRPPRLPRPRPRPRVAPRP", "shrunken log2 fold change": 0.816},
      {"sequence": "RRIRGRPPRLPRPRPRPRVFPRP", "shrunken log2 fold change": 1.02},
      {"sequence": "RRIRGRPPRLPRPRPRPRYSPRP", "shrunken log2 fold change": -0.173},
      {"sequence": "RRIRGRPPRLPRPRPRPSATPRP", "shrunken log2 fold change": 3.09},
      {"sequence": "RRIRGRPPRLPRPRPRPSCTPRP", "shrunken log2 fold change": 0.565},
      {"sequence": "RRIRGRPPRLPRPRPRPSDKPRP", "shrunken log2 fold change": 0.0485},
      {"sequence": "RRIRGRPPRLPRPRPRPSEDPRP", "shrunken log2 fold change": 0.71},
      {"sequence": "RRIRGRPPRLPRPRPRPSEPPRP", "shrunken log2 fold change": 0.413},
      {"sequence": "RRIRGRPPRLPRPRPRPSEWPRP", "shrunken log2 fold change": 0.393},
      {"sequence": "RRIRGRPPRLPRPRPRPSFCPRP", "shrunken log2 fold change": 0.348},
      {"sequence": "RRIRGRPPRLPRPRPRPSFQPRP", "shrunken log2 fold change": 0.198},
      {"sequence": "RRIRGRPPRLPRPRPRPSHCPRP", "shrunken log2 fold change": 0.204},
      {"sequence": "RRIRGRPPRLPRPRPRPSHNPRP", "shrunken log2 fold change": -0.189},
      {"sequence": "RRIRGRPPRLPRPRPRPSHQPRP", "shrunken log2 fold change": -0.0609},
      {"sequence": "RRIRGRPPRLPRPRPRPSHTPRP", "shrunken log2 fold change": -0.102},
      {"sequence": "RRIRGRPPRLPRPRPRPSICPRP", "shrunken log2 fold change": 0.207},
      {"sequence": "RRIRGRPPRLPRPRPRPSIDPRP", "shrunken log2 fold change": 1.84},
      {"sequence": "RRIRGRPPRLPRPRPRPSKMPRP", "shrunken log2 fold change": 0.0491},
      {"sequence": "RRIRGRPPRLPRPRPRPSKNPRP", "shrunken log2 fold change": 0.619},
      {"sequence": "RRIRGRPPRLPRPRPRPSMIPRP", "shrunken log2 fold change": 0.267},
      {"sequence": "RRIRGRPPRLPRPRPRPSNEPRP", "shrunken log2 fold change": 0.131},
      {"sequence": "RRIRGRPPRLPRPRPRPSNKPRP", "shrunken log2 fold change": -0.0675},
      {"sequence": "RRIRGRPPRLPRPRPRPSSSPRP", "shrunken log2 fold change": -0.296},
      {"sequence": "RRIRGRPPRLPRPRPRPSTIPRP", "shrunken log2 fold change": 0.235}
    ]}
  ]
}
